{"source": "patent US20200407449A1", "about": "(PHARMABCINE, published 2020)", "key": {"mouse VISTA-Fc": {"target": "T1, mouse VISTA-Fc (mouse, UniProt Q9D659 33-191)", "T1 construct": "extracellular domain; also called mVISTA-Fc; VISTA-FC Mouse; not shown: Fc portion", "T1 sequence (looked up)": "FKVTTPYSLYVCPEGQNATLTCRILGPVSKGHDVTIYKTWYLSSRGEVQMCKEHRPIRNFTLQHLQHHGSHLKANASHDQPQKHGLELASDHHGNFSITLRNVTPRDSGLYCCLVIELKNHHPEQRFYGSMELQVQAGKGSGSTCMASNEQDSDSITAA", "assay": "monoclonal scFv phage ELISA, plate coated with 1 ug/ml VISTA-Fc, anti-M13-HRP", "protocol": "(§1) After the panning process was completed, the final round cell stock was diluted to form 200 to 500 colonies, spread on a CM agar plate, and then incubated overnight at 37° C. The next day, when the colonies grew, 200 μl of 2xYT medium (CM 34 μg/ml+1% glucose) was plated onto a 96-well deep plate, the colony was inserted into each well one by one and the plate was then incubated overnight at 37° C. and 3,000 rpm. The next day, 200 μl of 2×YT medium (CM 34 μg/ml+1% glucose) was plated onto a new 96-well dip plate, and […] of cells grown the day before were injected into each well and grown at 37° C. and 3,000 rpm for 1 hour and 10 minutes. The remaining cells were stored at −70° C. in 100 pμl of 50% glycerol. When the cells grew, 1 μl of a helper phage was mixed with 19 μl of 2×YT medium, and 20 μl of the resulting mixture was injected into each well and incubated for 30 minutes at 37° C. After incubation, centrifugation was performed at 3,000 rpm for 10 minutes. The supernatant was discarded and 200 μl of 2×YT medium (CM 34 μg/ml+Kan. 70 μg/ml+1 mM IPTG+5 mM MgCl₂) was added to the residue, followed by incubation in MegaGrow at 30° C. and 3,000 rpm overnight.\n(§2) 1 μg/ml of Ag (hVISTA-Fc, mVISTA-Fc) was plated at 100 μl/well onto a 96-well immunoplate and then incubated overnight at 4° C. The next day, the cells grown the day before were centrifuged at 3,000 rpm for 10 minutes and stored at 4° C. The plated Ag was washed 3 times with 0.05% PBST, and then 200 μl of 2% BSA blocking buffer was added thereto, followed by incubation at 25° C. for 2 hours. After blocking was completed, the result was washed 3 times with 0.05% PBST. […] After phage binding was completed, the reaction product was washed three times with 0.05% PBST, 100 μl of HRP-conjugated mouse anti-M13 antibody (1:3000, #GE 27-9421-01) was added thereto, and reaction was allowed to proceed at 25° C. for 1 hour. After the reaction was completed, the resulting product was washed 3 times with 0.05% PBST, 100 μl of TMB (#BD TMB substrate reagent set 555214) was added thereto, color was developed for 3 to 5 minutes, 50 μl of a stop solution was added thereto, and then an assay was performed using an ELISA reader."}, "[1]": {"target": "T2, hVISTA-Fc (R&D systems. Cat. No. 7126-B7) (human, UniProt Q9H7M9 33-194)", "T2 construct": "Bought antigen; also called human VISTA-Fc; VISTA-FC Human", "T2 sequence": "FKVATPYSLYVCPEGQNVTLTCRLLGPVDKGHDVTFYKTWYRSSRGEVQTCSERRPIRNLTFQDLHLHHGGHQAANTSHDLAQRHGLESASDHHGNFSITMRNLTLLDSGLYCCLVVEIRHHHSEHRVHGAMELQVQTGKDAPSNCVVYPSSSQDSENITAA", "assay": "monoclonal scFv phage ELISA, plate coated with 1 ug/ml VISTA-Fc, anti-M13-HRP", "protocol": "as §1, §2"}}}
{"binder": "2C12 monoclonal scFv phage (scFv, V domains shown) VH: QVQLVESGAEVKKPGASVKVSCKASGYIFTDYYMHWVRQAPGQGLEWMGVINPYDGRTSFAQKFQGRLTVTRDTSTSTAYMDLSGLRSEDTAVYYCAKQMGIWDYDAFDIWGQGTMVTVSS VL: QFVLTQPSSVSGAPGQRVIISCTGSSSNIGAGYDVHWYQQLPGTAPKVLIYGNSDRPSGVPDRFSASKSATSASLAITGLQAEDEADYYCVAWDDSLKAYVFGTGTKVTVLG", "values": [{"measurement": "OD", "setting": "mouse VISTA-Fc", "result": 2.03, "unit": "OD"}, {"measurement": "OD", "setting": "[1]", "result": 2.11, "unit": "OD"}]}
